Test results reported in US20070087001A1 (CENTER FOR MOLECULAR MEDICINE AND IMMUNOLOGY, published 2007).
Ends that are not written are not given here.

Assays:
[1] = biological target: T1, Recombinant human placenta growth factor-2 (PlGF-2) (human) (UniProt P49763); assay: cell-based or functional assay
T1 sequence (looked up): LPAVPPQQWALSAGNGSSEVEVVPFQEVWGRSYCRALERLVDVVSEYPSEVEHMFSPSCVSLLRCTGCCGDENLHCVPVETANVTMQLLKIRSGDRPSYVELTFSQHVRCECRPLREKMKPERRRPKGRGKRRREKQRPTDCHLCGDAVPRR

[2] = biological target: T2, Recombinant human Flt-1 fusion protein (human, UniProt P17948 27-756); assay: ELISA, free FLAG-tagged peptide on Flt-1-coated wells
T2 construct: Bought fusion protein coated on plates at 10 µg/ml; also called VEGFR1; VEGF receptor I

[3] = biological target: T3, Recombinant human placenta growth factor-2 (PlGF-2) (human, UniProt P49763-3 19-170, limits assumed); assay: ELISA, free FLAG-tagged peptide on PlGF-coated wells
T3 construct: Bought protein; also called rhuPlGF
T3 sequence (looked up): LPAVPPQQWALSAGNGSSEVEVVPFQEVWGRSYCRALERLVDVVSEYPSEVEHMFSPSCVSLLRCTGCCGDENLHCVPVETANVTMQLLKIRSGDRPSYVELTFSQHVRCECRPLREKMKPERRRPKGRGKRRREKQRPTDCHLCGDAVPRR

[4] = biological target: T3, Recombinant human placenta growth …; assay: cell-based or functional assay
[5] = biological target: T4, Recombinant human VEGF 165 (human, UniProt P15692-4 27-191); assay: ELISA-based binding assay
T4 construct: Bought protein

[6] = biological target: T3, Recombinant human placenta growth …; assay: cell-based or functional assay; remark: listed apart in the source
[7] = biological target: T1, Recombinant human placenta growth factor-2 (PlGF-2) (human); assay: phage ELISA on PlGF-coated plates, anti-M13-HRP detection; phage library background 0.003
[8] = biological target: T4, Recombinant human VEGF 165; assay: ELISA, FLAG-tagged free peptide on VEGF165-coated wells, anti-FLAG detection
[9] = biological target: T2, Recombinant human Flt-1 fusion protein; assay: ELISA-based binding assay

T2 sequence (P17948 27-756): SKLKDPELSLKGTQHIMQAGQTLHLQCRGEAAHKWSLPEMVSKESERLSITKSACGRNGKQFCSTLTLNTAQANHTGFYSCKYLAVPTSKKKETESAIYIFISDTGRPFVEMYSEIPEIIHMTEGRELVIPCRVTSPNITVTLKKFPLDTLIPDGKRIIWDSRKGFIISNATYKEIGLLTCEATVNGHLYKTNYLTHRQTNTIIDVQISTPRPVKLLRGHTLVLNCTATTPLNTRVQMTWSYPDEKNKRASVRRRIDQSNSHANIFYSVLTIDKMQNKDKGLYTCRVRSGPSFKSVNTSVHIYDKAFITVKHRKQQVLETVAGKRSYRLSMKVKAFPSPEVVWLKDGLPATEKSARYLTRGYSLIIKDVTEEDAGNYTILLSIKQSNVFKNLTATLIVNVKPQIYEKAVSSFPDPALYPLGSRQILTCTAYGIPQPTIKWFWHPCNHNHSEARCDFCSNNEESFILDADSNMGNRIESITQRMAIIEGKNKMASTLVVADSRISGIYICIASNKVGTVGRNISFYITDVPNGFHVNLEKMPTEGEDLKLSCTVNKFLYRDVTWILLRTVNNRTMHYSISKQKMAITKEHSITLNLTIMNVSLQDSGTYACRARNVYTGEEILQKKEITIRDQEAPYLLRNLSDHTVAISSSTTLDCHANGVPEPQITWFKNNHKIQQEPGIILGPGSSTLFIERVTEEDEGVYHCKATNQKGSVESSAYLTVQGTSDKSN
T4 sequence (P15692 other isoform, or with tags, fused parts or gaps limits assumed): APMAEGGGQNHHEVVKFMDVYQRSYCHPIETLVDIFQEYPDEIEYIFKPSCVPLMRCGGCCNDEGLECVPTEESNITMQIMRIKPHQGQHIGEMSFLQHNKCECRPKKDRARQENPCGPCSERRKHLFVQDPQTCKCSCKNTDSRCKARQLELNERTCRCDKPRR

For “Human recombinant soluble Flt-1 (sFlt-1) (from UniProt P17948 27-756) (receptor)”, the Block of the stimulatory effect of PlGF on motility, MCF-7 [1] was 67%, the Block of the stimulatory effect of PlGF on motility, MDA-MB-231 [1] was 55% and the Migrating cells (wound-healing assay, MCF-7, PlGF 2 nM + Flt-1 2 nM) (cells/100x field) [1] was 10.4. The Migrating cells (wound-healing assay, MDA-MB-231, PlGF 2 nM + Flt-1 2 nM) (cells/100x field) [1] was 19.1, the Migrating cells (wound-healing assay, MDA-MB-468, PlGF 2 nM + Flt-1 2 nM) (cells/100x field) [1] was 7.8 and the Relative activity (wound-healing assay, MCF-7) (relative to PlGF-only = 100) [1] was 47. It also gave a Relative activity (wound-healing assay, MDA-MB-231) (relative to PlGF-only = 100) [1] of 45 and a Relative activity (wound-healing assay, MDA-MB-468) (relative to PlGF-only = 100) [1] of 53.

RMPYSEHSAPLGDYKDDDDK (peptide, not shown: small tags and cut ends, also: linker between peptide and FLAG epitope, sequence not given here) [Peptide BP4 synthesized with a linker and a C-terminal FLAG epitope]: no binding [2]; no binding (tested: 50 µM) [3].

With SAAYALAIQLAASASSSSCV [Control peptide CPA (BP1 with A substituted for the H, R and D residues)] the “Average fold-change in invading cells vs untreated (MCF-7, PlGF 0.2 nM + CPA 2 µg/ml)” value [4] was 1 fold vs untreated, the “Average fold-change in invading cells vs untreated (MDA-MB-231, PlGF 0.2 nM + CPA 2 µg/ml)” value [4] was 4.9 fold vs untreated and the “Average fold-change in invading cells vs untreated (MDA-MB-468, PlGF 0.2 nM + CPA 2 µg/ml)” value [4] was 1.2 fold vs untreated. For the same molecule, the binding result [5] was “binds”, the “Relative activity (wound-healing assay, MDA-MB-231)” value [6] was 106 relative to PlGF-only = 100 and the “Relative activity (wound-healing assay, MDA-MB-468)” value [6] was 147 relative to PlGF-only = 100.

B1: Phage BP1 (BP1 peptide displayed on M13 phage) (peptide, not shown: large carriers; small tags and cut ends)
peptide: SHRYRLAIQLHASDSSSSCV
modifications: also: displayed on M13 phage, fused to pIII coat protein, spacer and fusion end not given here
For B1, the absorbance (410 nm) [7] was 0.024 A410.

QEAFNRLTSRMHDYKDDDDK (peptide, not shown: small tags and cut ends, also: linker between peptide and FLAG epitope, sequence not given here) [Peptide BP3 synthesized with a linker and a C-terminal FLAG epitope]: no binding [2]; no binding (tested: 50 µM) [3].

Molecule SHRYRLAIQLHASDSSSSCVDYKDDDDK (peptide, not shown: small tags and cut ends, also: linker between peptide and FLAG epitope, sequence not given here, detected by probing for FLAG) [Peptide BP1 (Binding Peptide 1) synthesized with a linker and a C-terminal FLAG epitope] has an A490 [8] of 0.299 A490 and a fold over background [9] of 10 fold over background.

In the case of SHRYRLAIQLHASDSSSSCV [Binding Peptide 1 (BP1), synthetic peptide], the “Average fold-change in invading cells vs untreated (MCF-7, PlGF 0.2 nM + BP1 2 µg/ml)” value [4] is reported as 0.3 fold vs untreated, the “Average fold-change in invading cells vs untreated (MDA-MB-231, PlGF 0.2 nM + BP1 2 µg/ml)” value [4] is reported as 1.3 fold vs untreated and the “Average fold-change in invading cells vs untreated (MDA-MB-468, PlGF 0.2 nM + BP1 2 µg/ml)” value [4] is reported as 0.6 fold vs untreated. The “Relative activity (wound-healing assay, MCF-7)” value [6] was 45 relative to PlGF-only = 100, the “Relative activity (wound-healing assay, MDA-MB-231)” value [6] was 32 relative to PlGF-only = 100 and the “Relative activity (wound-healing assay, MDA-MB-468)” value [6] was 97 relative to PlGF-only = 100.
